Key:
Assay in all cases: pull-down binding Z-score (relative to library population); higher = stronger binding
[1] = system: TO-N3-2 (biotin conjugate); conditions: RNA library: Library-2
How it was run: (§1)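 Cy5- or Cy3-end-labelled RNA library (1 μg) was heat-folded in phosphate/NaCl/KCl buffer and incubated 60 min at 25 °C with streptavidin beads carrying 100 pmol biotin-conjugated small molecule. After three washes, bound RNA was eluted in hot SDS and hybridised 20 h at 55.5 °C to a DNA barcode microarray. Binding was scored by subtracting a beads-only control, averaging barcoded replicate probes after dropping highest and lowest, and converting to a Z-score against library mean and standard deviation.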

[2] = system: TO-3-N3-2 (biotin conjugate); conditions: RNA library: Library-2
How it was run: as §1

TO-N3 (biotin conjugate) = conditions: RNA library: Library-2
How it was run: as §1

[3] = system: TO-3-N3 (biotin conjugate); conditions: RNA library: Library-2
How it was run: as §1

[4] = system: G-clamp-N3 (biotin conjugate); conditions: RNA library: Library-1 (pre-miRNA loops + repeats)
How it was run: as §1

Row | Sequence | pull-down binding Z-score [1] | pull-down binding Z-score [2] | pull-down binding Z-score (TO-N3 (biotin conjugate)) | pull-down binding Z-score [3] | pull-down binding Z-score [4]
1 | UCUCAAAAUAAUUCUGCAGUGAGA [hsa-mir-4524b] | -0.868 | 0.0866 | -1.13 | -0.872 | 2.26
2 | UGCUAUUAGAAAGUAAUGGCA [hsa-mir-548ba] | -0.00903 | 0.507 | 0.776 | 0.757 | 0.465
3 | GUUGACUGUUGAAUCUCAUGGCAAC [hsa-mir-21] | 0.204 | -0.186 | 0.0029 | -0.114 | -0.474
4 | GUGAGUGUCUCUUGUCGC [hsa-mir-1281] | 0.25 | -0.252 | 0.328 | 0.334 | 1.22
5 | GGCGCGCGAGGCUCCAGGCUCC [hsa-mir-3197] | 1.92 | 0.248 | 0.81 | 0.322 | 2.56
6 | GUGUACAGGGAGGAGACUGUACGUGAGAGAUAGUCAGAUCCGCAUGUUAGAGCAGAGUCUCCUUCGUGUACAG [hsa-mir-4441] | 0.631 | -0.183 | -0.184 | -0.779 | 0.459
7 | GGAACACUAUAUUAAUCAGGUUUCC [hsa-mir-6509] | -0.706 | -0.256 | -0.631 | -0.609 | -0.0674
8 | GGAGACACUUUUACUAUAUAUAGUGGCUCC [hsa-mir-3156-1] | -1.51 | -0.555 | -1.5 | -1.09 | -0.0968
9 | CCCACCAUGUACCAGUGGG [hsa-mir-4422] | -0.708 | -0.535 | -0.813 | -0.343 | -1.07
10 | UGUUCGUUUUGCUCAUGUCGAAUC [hsa-mir-487b] | -0.133 | -0.391 | -0.701 | -0.794 | -0.817
11 | UCCAUGAAAAGAACCCAUGGG [hsa-mir-4471] | -0.307 | 0.0519 | -0.608 | -0.455 | -0.734
12 | UCAGCACCUGAACGCCAAGGCUGG [hsa-mir-3150a] | 0.123 | -0.591 | -0.348 | -0.481 | 0.168
13 | GGUUUUGCCAUCAUGCCAAAAGCU [hsa-mir-548v] | 0.259 | -0.0997 | 0.277 | 0.00688 | -0.76
14 | UCAUUUUCCUUAAAAAAUGA [hsa-mir-3128] | – | -0.469 | -1.09 | -0.529 | -1.07
15 | GUCUGCCAAAACCUUGGCAGAC [hsa-mir-3913-1] | -1.22 | -0.517 | -1.02 | -0.531 | 0.901
16 | UAGUACAGGUGAGAUUGUACUG [hsa-mir-3920] | -0.564 | -0.323 | -0.888 | -0.707 | 0.5
17 | GUGGUUUCAGGGCAGUGAUGUUGCCCCUCGGAAGAUAACUAU [hsa-let-7b] | 0.235 | -0.113 | -0.128 | -0.324 | 0.231
18 | UCAGGAUCUACUCAUGUCGUCUUUGG [hsa-mir-573] | 0.472 | -0.199 | -0.165 | -0.404 | -1.01

Row | Sequence | pull-down binding Z-score [1] | pull-down binding Z-score [2] | pull-down binding Z-score (TO-N3 (biotin conjugate)) | pull-down binding Z-score [3] | pull-down binding Z-score [4]
19 | UUACUGCAGGGAUCUUAGCAGUAC [hsa-mir-583] | 0.435 | 0.0351 | 0.303 | 0.295 | -0.752
20 | CCUGCCCAAAUGGUGGAGCAGAUUCGAGGGGCAGG [hsa-mir-4436b-2_4436b-1] | -0.125 | 0.0731 | -0.282 | -0.218 | 2.51
21 | CGCGGGCGGGUCCCAGGCUGGGCCCCUCGGAGGCCGGGUGCUCACUGCCCCGUCCCGG [hsa-mir-6789] | 4.13 | -0.0304 | 1.7 | 0.75 | 0.322
22 | GGAGUCCUCUAGACACC [hsa-mir-6510] | -0.175 | -0.348 | 0.373 | 0.483 | -0.716
23 | CCCGUAGGACACCGAGGCUUAUGAAUAGGA [hsa-mir-6081] | 0.62 | 0.141 | 0.345 | -0.16 | -0.941
24 | UGGUUACGUGUUUGAUGGUUAAUCA [hsa-mir-376a-2] | -0.0517 | -0.0388 | -0.0926 | -0.155 | 1.55
25 | CACCUCCCGGCCCGGAGCUG [hsa-mir-4734] | 0.527 | -0.473 | -0.0704 | -0.243 | 0.0744
26 | UUAGCCCAGCAAUGGGAGAGUGCUAA [hsa-mir-4636] | 0.154 | 0.32 | 0.111 | 0.252 | 0.508
27 | AGUCACUUAGAUUACAUGUGACU [hsa-mir-888] | -0.915 | -0.513 | -0.368 | 0.0487 | 0.394
28 | UUUCCCAUUAUUUUAAUUGCGAA [hsa-mir-570] | -1.16 | -0.363 | -0.927 | -0.699 | -0.975
29 | CGUUUAGUAGAUGAUUGUGCAUUGUUUCAAAAUG [hsa-mir-224] | -0.183 | -0.358 | -0.502 | -0.714 | -0.24
30 | GGGGCUGGCUGGGUCUGGUAGUGGGCAUCAGCUGGCCCU [hsa-mir-1207] | 1.22 | 1.51 | 2.6 | 2.53 | 2
31 | CACUCAGGCAGUGCCAUGAGC [hsa-mir-6811] | 0.422 | -0.366 | 0.408 | 0.249 | -0.12
32 | GUCUCGGUCCUUUGGAACGUGGC [hsa-mir-4470] | -0.476 | -0.387 | -0.607 | -0.39 | -0.378
33 | UAAUGCUCUGAAAAUGACUCCAAUCAUUA [hsa-mir-3202-2] | -0.457 | -0.069 | -0.741 | -0.685 | -1.64
34 | UUUUGCAGUUGAAAGUAAUGGCAAAG [hsa-mir-548ao] | 0.259 | 0.00731 | -0.0635 | -0.235 | 2.64
35 | GGUAGAGAUGAUUUUUCCUACU [hsa-mir-5003] | 0.226 | 0.65 | 1.78 | 1.76 | 0.245
